According to PMC5910400 (2018):
Residue numbers refer to the chain shown, from its start.

T1: CCL16 (Homo sapiens)
T1 chain: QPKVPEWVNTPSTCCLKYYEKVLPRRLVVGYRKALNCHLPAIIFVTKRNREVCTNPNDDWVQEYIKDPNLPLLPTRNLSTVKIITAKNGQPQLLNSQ

T2: CCL4L1 (Homo sapiens)
T2 chain: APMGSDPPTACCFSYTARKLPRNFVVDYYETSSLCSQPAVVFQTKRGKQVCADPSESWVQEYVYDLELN

T3: CCL5 (human, UniProt P13501 24-91)
T3 chain: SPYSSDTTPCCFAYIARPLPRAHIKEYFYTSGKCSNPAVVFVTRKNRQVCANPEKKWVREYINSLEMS

T4: CCL14 (Homo sapiens)
T4 chain: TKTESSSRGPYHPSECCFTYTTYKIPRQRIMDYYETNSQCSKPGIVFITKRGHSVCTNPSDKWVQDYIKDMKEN

T5: CCL23 (human, UniProt P55773 22-120)
T5 chain: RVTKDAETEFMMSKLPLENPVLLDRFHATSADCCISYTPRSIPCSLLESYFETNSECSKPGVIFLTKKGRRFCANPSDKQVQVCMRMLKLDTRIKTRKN

T6: CCL27 (Homo sapiens)
T6 chain: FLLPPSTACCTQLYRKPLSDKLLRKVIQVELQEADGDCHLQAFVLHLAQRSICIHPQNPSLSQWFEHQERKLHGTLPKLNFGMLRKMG

T7: CCL21 (human, UniProt O00585 24-134)
T7 chain: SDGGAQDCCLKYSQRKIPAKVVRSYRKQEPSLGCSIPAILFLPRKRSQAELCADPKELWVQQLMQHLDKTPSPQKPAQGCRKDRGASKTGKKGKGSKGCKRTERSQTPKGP

T8: CCL19 (Homo sapiens)
T8 chain: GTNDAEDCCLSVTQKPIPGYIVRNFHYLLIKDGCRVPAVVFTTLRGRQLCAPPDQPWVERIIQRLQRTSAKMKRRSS

T9: CCL15 (Homo sapiens)
T9 chain: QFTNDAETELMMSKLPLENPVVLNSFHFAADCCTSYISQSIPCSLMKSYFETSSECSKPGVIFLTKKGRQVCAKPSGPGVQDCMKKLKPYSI

T10: CCL3 (human, UniProt P10147 24-92)
T10 chain: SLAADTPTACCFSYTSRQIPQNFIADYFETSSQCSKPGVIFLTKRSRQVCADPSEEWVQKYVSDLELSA

T11: CCL22 (human, UniProt O00626 25-93)
T11 chain: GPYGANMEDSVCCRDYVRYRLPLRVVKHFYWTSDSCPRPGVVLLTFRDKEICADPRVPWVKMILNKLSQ

T12: CCL8 (Homo sapiens)
T12 chain: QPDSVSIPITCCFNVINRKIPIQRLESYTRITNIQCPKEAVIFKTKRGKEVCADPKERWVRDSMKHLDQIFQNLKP

T13: CCL18 (Homo sapiens)
T13 chain: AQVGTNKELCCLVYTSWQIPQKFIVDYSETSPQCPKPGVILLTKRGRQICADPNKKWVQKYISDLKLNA

T14: CCL1 (human, UniProt P22362 24-96)
T14 chain: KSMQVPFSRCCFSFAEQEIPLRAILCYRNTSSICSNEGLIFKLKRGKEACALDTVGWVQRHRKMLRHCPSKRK

T15: CCL24 (Homo sapiens)
T15 chain: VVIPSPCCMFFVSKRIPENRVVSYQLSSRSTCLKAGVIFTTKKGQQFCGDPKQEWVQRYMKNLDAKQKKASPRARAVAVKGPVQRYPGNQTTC

T16: CCL4 (Homo sapiens)
T16 chain: T2 chain with G47S

B1: CCL3L1 (ligand)
chain: APLAADTPTACCFSYTSRQIPQNFIADYFETSSQCSKPSVIFLTKRGRQVCADPSEEWVQKYVSDLELSA
B2: P1156 (evasin from Ixodes ricinus), purified, C-terminal StrepII:His tag (natural protein)
chain: DGGADDDNELFTVQYCGMNCTKDEGGTWTGCTGKKEGCKCYHESGKNYGLCLSTEYTDFSQYGNPSDSEIEAAKPKRSDTLSH
B3: CCL17 (protein)
chain: ARGTNVGRECCLEYFKGAIPLRKLKTWYQTSEDCSRDAIVFVTVQGRAICSDPNNKRVKNAVKYLQSLERS
B4: P1243 (evasin from Amblyomma americanum), purified, C-terminal StrepII:8xHis tag (natural protein)
chain: ETGRNHTEDNSTEYYDYEEARCACPARHLNNTNGTVLKLLGCHYFCNGTLCTAPDGYPCYNLTAQQVRTLTTYPNTSCAVGVCMKGTCVKNGTMEQCFKTP

Experiments:
Test in all cases: BLI
[1] = biological target: P1156:G4S:P1243 two-warhead evasin (Ixodes ricinus | Amblyomma americanum, UniProt V5HBW0;A0A0C9S461)
[2] = biological target: P1243:G4S:P1156 two-warhead evasin (Amblyomma americanum | Ixodes ricinus, UniProt A0A0C9S461;V5HBW0)
CXCL2 = CXCL2 (human, UniProt P19875 35-107)
CXCL1 = CXCL1 (human, UniProt P09341 35-107)
CXCL3 = CXCL3 (human, UniProt P19876 35-107)
CXCL8 = CXCL8 (human)
Chain of CXCL8 (human) (chain, as listed by the source): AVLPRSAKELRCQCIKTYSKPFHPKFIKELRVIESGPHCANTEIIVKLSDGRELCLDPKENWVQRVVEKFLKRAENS

CXCL6 = CXCL6 (human)
CXCL5 = CXCL5 (human)
CCL11 = CCL11 (Homo sapiens)
Chain of CCL11 (Homo sapiens) (chain, as listed by the source): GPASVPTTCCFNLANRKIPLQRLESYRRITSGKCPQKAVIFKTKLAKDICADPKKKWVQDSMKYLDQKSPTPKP

CCL3L1 = biological target: B1
CCL16 = biological target: T1, CCL16
CCL7 = CCL7 (human, UniProt P80098 24-99)
Chain of CCL7 (P80098 24-99): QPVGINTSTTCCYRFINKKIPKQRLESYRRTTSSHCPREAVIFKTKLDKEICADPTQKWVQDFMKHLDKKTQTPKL

CCL17 = biological target: B3
CCL4L1 = biological target: T2, CCL4L1
CCL5 = biological target: T3, CCL5
CCL14 = biological target: T4, CCL14
CCL23 = biological target: T5, CCL23
CCL27 = biological target: T6, CCL27
CCL21 = biological target: T7, CCL21
CCL19 = biological target: T8, CCL19
CCL15 = biological target: T9, CCL15
CCL3 = biological target: T10, CCL3
CCL22 = biological target: T11, CCL22
CCL8 = biological target: T12, CCL8
CCL18 = biological target: T13, CCL18
CCL1 = biological target: T14, CCL1
CCL13 = CCL13 (human, UniProt Q99616 24-98)
Chain of CCL13 (Q99616 24-98): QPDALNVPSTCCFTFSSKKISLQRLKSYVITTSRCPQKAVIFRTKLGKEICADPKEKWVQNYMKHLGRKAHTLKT

CCL24 = biological target: T15, CCL24
CCL4 = biological target: T16, CCL4

How did the Kd [1] turn out when B1 was run?
Its Kd is 5.3 nM.

And the Kd [2]?
The Kd was 6.4 nM.

Which Kd (CXCL2) does the source give for B2 here?
The Kd was 51 nM.

And the Kd (CXCL1)?
Its Kd is 5.8 nM.

What about the Kd (CXCL3) of the same binder?
The Kd was 70 nM.

And the Kd (CXCL8)?
The Kd was 2.9 nM.

What about the Kd (CXCL6) of the same binder?
The Kd was 63 nM.

And the Kd (CXCL5)?
Its Kd is 30 nM.

What does the source list for B3?
Kd [1]: 5.4 nM; Kd [2]: 4.5 nM

Which results are given for B4?
Kd (CCL11): 6.69 nM; Kd (CCL3L1): 8.97 nM; Kd (CCL16): 1.3 nM; Kd (CCL7): 49.3 nM; Kd (CCL17): 6.1 nM; Kd (CCL4L1): 15.7 nM; Kd (CCL5): 3.79 nM; Kd (CCL14): 4.33 nM; Kd (CCL23): 0.772 nM; Kd (CCL27): 24 nM; Kd (CCL21): 26 nM; Kd (CCL19): 3.9 nM; Kd (CCL15): 9.78 nM; Kd (CCL3): 35.5 nM; Kd (CCL22): 13 nM; Kd (CCL8): 56.3 nM; Kd (CCL18): 0.663 nM; Kd (CCL1): 20 nM; Kd (CCL13): 1.4 nM; Kd (CCL24): 13 nM; Kd (CCL4): 12.2 nM
